Laboratory results: US11518805B2, “Binding inhibitor between TCTP dimer type IgE-dependent histamine releasing factor and receptor thereof, and use thereof” (EWHA UNIVERSITY—INDUSTRY COLLABORATION FOUNDATION, priority 2014, dated 2022)
Entries after “also recorded” stand apart in the source; their conditions may differ.

Tests used:
BEAS-2B cells [1] = experiment: GM-CSF secretion by f-TCTP, Δ-dTCTP and Del-N11dTCTP in BEAS-2B cells; format: cell-based; settings: protein at 1, 5 or 10 μg/ml, 24 hours, ELISA
Method: (§1) To investigate the IL-8 and GM-CSF secretory activity of f-TCTP, Δ-dTCTP, and Del-N11dTCTP in BEAS-2B cells, the present inventors compared the activity of f-TCTP, Δ-dTCTP, and Del-N11dTCTP by measuring the secretion of IL-8 in BEAS-2B cells.
(§2) Particularly, BEAS-2B cells were cultured in a 48-well plate until the confluency reached to 70%. Then, the cells were washed with 1% penicillin-streptomycin/BEBM (Clonetics) twice. Each recombinant protein of the Δ-dTCTP separated in Example 1 of the invention, and the f-TCTP and Del-N11dTCTP constructed by the method described in Korean Patent Application No. 2006-0007663 was added thereto at the concentration of 1 μg/ ? , 5 μg/ ? , or 10 μg/ ? 24 hours later, the supernatant was obtained and the released IL-8 and GM-CSF were quantified by ELISA.

BEAS-2B cells [2] = experiment: IL-8 secretion by f-TCTP, Δ-dTCTP and Del-N11dTCTP in BEAS-2B cells; format: cell-based; settings: protein at 1, 5 or 10 μg/ml, 24 hours, ELISA
Method: as §1, §2

Del-N11dTCTP [3] = molecular target: T1, Del-N11dTCTP (Rattus norvegicus, UniProt P63029); experiment: Inhibition of Del-N11dTCTP-mediated IL-8 secretion by polyclonal antibodies recognizing FL and H2 domains in BEAS-2B cells; format: cell-based; design: dose or concentration left out as unconfirmed; settings: 20 hours
T1 construct: made in house
T1 sequence (P63029 11-172 limits assumed): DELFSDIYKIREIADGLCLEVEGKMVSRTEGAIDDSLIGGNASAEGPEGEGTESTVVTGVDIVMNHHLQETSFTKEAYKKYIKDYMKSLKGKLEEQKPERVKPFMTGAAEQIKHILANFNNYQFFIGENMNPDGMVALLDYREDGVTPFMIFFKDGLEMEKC
Method: The inhibitory effect on Del-N11dTCTP-mediated IL-8 secretion by the antibody recognizing FL and H2 domains constructed in Example 6 of the invention was investigated by treating the antibody to BEAS-2B cells.
Particularly, BEAS-2B cells were treated with anti-FL antibody and ani-H2 antibody at different concentrations. Then, Del-N11dTCTP-induced IL-8 secretion was compared. The BEAS-2B cells cultured in a 48-well plate were washed with 1% penicillin-streptomycin/BEBM (Lonza) twice, followed by serum starvation for 7 hours. The antibody diluted in PBS at the concentrations of 1 and 10 ng/ml was reacted with 70 μM Del-N11dTCTP at 37° C. for 2 hours. The reaction mixture was treated to the cells above. 20 hours later, the supernatant was obtained and the released IL-8 therein was quantified by ELISA.

[4] = system: dTBP2 (dTCTP binding peptide 2); experiment: Affinity of TCTP proteins to immobilized biotinylated dTBP2 (ELISA); settings: biotinylated dTBP2 0.01-10 μm on streptavidin plate; protein 0.2 μg/ml; ELISA 450/570 nm
Method: To investigate the affinity to dTBP2 of f-TCTP, Δ-dTCTP, and Del-N11dTCTP of the present invention, biotin was conjugated to the COOH-terminus of dTBP2 known to bind to HRF, followed by purification. The purified protein was immobilized in the plastic well coated with streptavidin, to which f-TCTP, Δ-dTCTP, and Del-N11dTCTP were added. Then, the binding strength of each protein was investigated.
Particularly, 50 ? of the biotinylated dTBTP2 dissolved in a buffer (TBS [25 mM Tris, 150 mM NaCl, pH 7.2], 0.1% BSA, 0.05% Tween-20) at different concentrations of 0.01, 0.1, 1, and 10 μm was added to Reacti-Bind Streptavidin Coated Polystyrene Plates (PIERCE), followed by reaction at room temperature for 2 hours. The plate was washed with a washing buffer three times. Each of f-TCTP, Δ-dTCTP, and Del-N11dTCTP was dissolved in TBS at the concentration of 0.2 μg/ ? . 60 ? of the mixture was added to each well of the plate, followed by reaction for 1 hour. The plate was washed with a washing buffer three times. 100 ? of anti-HRF rabbit antibody (Bio-Rad) diluted in a buffer (1:2000) was added to each well of the plate, which stood at room temperature for 30 minutes. The plate was washed with a washing buffer three times and with TBS once, to which HRP-conjugated anti-rabbit antibody (1:2000) was added (100 ? /well), which stood at room temperature for 30 minutes. The plate was washed with a washing buffer three times and with TBS once, to which […] (PIERCE), the peroxydase substrate solution, was added (100 ? /well). Color development was measured at 450 nm and 570 nm using an ELISA reader (Bio-Rad), and affinity was determined by the difference.

Del-N11dTCTP [5] = molecular target: T1, Del-N11dTCTP; experiment: Inhibition of Del-N11dTCTP-mediated IL-8 secretion by polyclonal antibody recognizing C-terminus domain in BEAS-2B cells; format: cell-based; settings: Del-N11dTCTP 1 μg/mL, 20 hours
Method: BEAS-2B cells were treated with the antibody recognizing C-terminus domain constructed in Example 8 in order to investigate whether or not the antibody could inhibit the Del-N11dTCTP-mediated IL-8 secretion.
Particularly, BEAS-2B cells were treated with Del-N11dTCTP (1 μg/mL) by the same manner as described in Experimental Example 4. At this time, the antibody diluted in PBS at the concentration of 40 nM was mixed with 1 μg/mL of Del-N11dTCTP at room temperature, followed by reaction for 10 minutes. The reaction mixture was treated to the cells above. 20 hours later, the supernatant was obtained and the separated IL-8 therein was quantified by ELISA.

B1: Del-N11dTCTP: dimer form of amino terminal-deleted TCTP, active HRF form (protein, UniProt P13693 12-172, looked up, fragment)
chain: EMFSDIYKIREIADGLCLEVEGKMVSRTEGNIDDSLIGGNASAEGPEGEGTESTVITGVDIVMNHHLQETSFTKEAYKKYIKDYMKSIKGKLEEQRPERVKPFMTGAAEQIKHILANFKNYQFFIGENMNPDGMVALLDYREDGVTPYMIFFKDGLEMEKC
modifications: dimer
BEAS-2B cells [1]
  secretion of GM-CSF: more than f-TCTP and Δ-dTCTP could do; also recorded: superior to f-TCTP and Δ-dTCTP
BEAS-2B cells [2]
  secretion of IL-8: more than f-TCTP and Δ-dTCTP could do; also recorded: superior to f-TCTP and Δ-dTCTP
Del-N11dTCTP [3]
  IL-8 secretion, Del-N11dTCTP alone: increased
[4]
  affinity to dTBP2: higher affinity to dTBP2 than f-TCTP or Δ-dTCTP; also recorded: higher dTBP2 affinity than f-TCTP and Δ-dTCTP
Del-N11dTCTP [5]
  IL-8 secretion, PBS together with Del-N11dTCTP: increased
